pKd data for two molecules are collected here from PMC9482650, “Quantitative fragmentomics allow affinity mapping of interactomes” (Nature Communications, 2022).

The labels stand for the following.
T1: APBA2_2, Q99767
T1 sequence (Q99767 654-744, limits assumed, looked up): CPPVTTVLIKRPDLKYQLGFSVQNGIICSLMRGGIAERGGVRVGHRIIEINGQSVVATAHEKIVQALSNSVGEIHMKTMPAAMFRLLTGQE

T2: GRIP1_3, Q9Y3R0
T2 sequence (Q9Y3R0 247-346, limits assumed, looked up): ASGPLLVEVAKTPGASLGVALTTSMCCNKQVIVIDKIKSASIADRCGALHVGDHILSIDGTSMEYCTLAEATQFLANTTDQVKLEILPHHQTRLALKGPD

T3: APBA1_1, Q02410
T3 sequence (Q02410 651-752, limits assumed, looked up): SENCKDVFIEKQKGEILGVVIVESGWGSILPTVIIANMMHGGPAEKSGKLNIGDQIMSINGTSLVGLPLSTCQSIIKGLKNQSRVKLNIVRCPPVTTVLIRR

T4: SNTG2, Q9NY99
T4 sequence (Q9NY99 68-166, limits assumed, looked up): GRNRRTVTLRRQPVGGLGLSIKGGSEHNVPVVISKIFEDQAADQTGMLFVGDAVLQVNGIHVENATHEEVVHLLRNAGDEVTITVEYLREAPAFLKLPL

T5: APBA1_2, Q02410
T5 sequence (Q02410 742-832, limits assumed, looked up): T1 sequence (Q99767 654-744, limits assumed, looked up) with K10R, K15R, A59P, Q65H, A66I, S70A, F84Y, G89A

T6: PDZD7_3, Q9H5P4
T6 sequence (Q9H5P4 857-944, limits assumed, looked up): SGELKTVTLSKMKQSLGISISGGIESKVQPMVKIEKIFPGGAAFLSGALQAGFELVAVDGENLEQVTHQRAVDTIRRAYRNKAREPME

T7: HTRA4, P83105
T7 sequence (P83105 378-476, limits assumed, looked up): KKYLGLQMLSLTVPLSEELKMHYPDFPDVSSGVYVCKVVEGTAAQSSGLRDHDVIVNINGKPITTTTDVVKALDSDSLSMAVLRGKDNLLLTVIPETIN

T8: DFNB31_1, Q9P202
T8 sequence (Q9P202 135-233, limits assumed, looked up): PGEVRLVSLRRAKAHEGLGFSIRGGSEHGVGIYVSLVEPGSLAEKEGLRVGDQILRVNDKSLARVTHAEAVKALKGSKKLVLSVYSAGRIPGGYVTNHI

T9: DLG3_3, Q92796
T9 sequence (Q92796 374-475, limits assumed, looked up): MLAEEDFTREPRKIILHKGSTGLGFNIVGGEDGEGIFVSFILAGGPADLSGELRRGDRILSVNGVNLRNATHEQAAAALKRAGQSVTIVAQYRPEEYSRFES

T10: GRIP1_4, Q9Y3R0
T10 sequence (Q9Y3R0 467-571, limits assumed, looked up): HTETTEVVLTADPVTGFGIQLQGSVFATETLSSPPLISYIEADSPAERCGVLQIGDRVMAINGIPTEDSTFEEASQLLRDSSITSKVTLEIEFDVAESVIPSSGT

T11: GRIP1_2, Q9Y3R0
T11 sequence (Q9Y3R0 145-248, limits assumed, looked up): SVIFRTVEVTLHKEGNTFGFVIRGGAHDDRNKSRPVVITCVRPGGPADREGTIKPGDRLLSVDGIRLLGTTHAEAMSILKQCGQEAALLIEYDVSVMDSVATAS

T12: MPP7, Q5T2T1
T12 sequence (Q5T2T1 134-230, limits assumed, looked up): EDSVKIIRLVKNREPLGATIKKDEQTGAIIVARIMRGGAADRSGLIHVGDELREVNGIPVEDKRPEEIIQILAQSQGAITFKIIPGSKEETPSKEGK

T13: MPP6, Q9NZW5
T13 sequence (Q9NZW5 125-219, limits assumed, looked up): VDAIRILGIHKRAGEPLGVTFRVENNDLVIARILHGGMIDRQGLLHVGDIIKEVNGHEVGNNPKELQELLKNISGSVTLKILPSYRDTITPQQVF

T14: ARHGEF11, O15085
T14 sequence (O15085 42-136, limits assumed, looked up): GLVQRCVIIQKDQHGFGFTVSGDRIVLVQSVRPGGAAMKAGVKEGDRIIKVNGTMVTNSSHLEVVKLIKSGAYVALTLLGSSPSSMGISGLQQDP

B1: FAM110D, Q8TAY7 (peptide)
chain: ARGPPRESEV
B2: CACNG8, Q8WXS5 (peptide)
chain: NTLNRKTTPV

Residue numbers refer to the chain shown, from its start.

For orientation: pKd means −log10 of the Kd, conventionally taken in molar units.

Chain of PARD3_3, Q8TEW0 (Q8TEW0 582-685): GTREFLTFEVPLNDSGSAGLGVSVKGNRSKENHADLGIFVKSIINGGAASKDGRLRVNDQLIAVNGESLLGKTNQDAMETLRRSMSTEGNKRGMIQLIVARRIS
Chain of NHERF2_2, Q15599 (Q15599 142-238): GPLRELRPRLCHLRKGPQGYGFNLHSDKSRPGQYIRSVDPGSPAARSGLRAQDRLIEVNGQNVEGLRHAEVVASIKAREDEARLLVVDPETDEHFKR

The first assay has as its target T1, APBA2_2, Q99767. As to the kind of experiment: holdup assay. The settings on record: plain residues with an end cap or a label only (N-terminal biotin on a linker: ado-ado). More on the design: key: below the threshold = too weak to quantify, mostly under pKd 3.1 to 4.
As to B1, the pKd result was “below the threshold”.

In the case of B2, the pKd result was “below the threshold”.

In another assay the target is T2, GRIP1_3, Q9Y3R0. As to the kind of experiment: holdup assay. On the set-up: key: below the threshold = too weak to quantify, mostly under pKd 3.1 to 4. Particulars: plain residues with an end cap or a label only (N-terminal biotin on a linker: ado-ado).
On to B1, for which the pKd result is “below the threshold”.

In the case of B2, the pKd result is “below the threshold”.

The next assay addresses T3, APBA1_1, Q02410. As to the kind of experiment: holdup assay. On the set-up: key: below the threshold = too weak to quantify, mostly under pKd 3.1 to 4. Particulars: plain residues with an end cap or a label only (N-terminal biotin on a linker: ado-ado).
With B1, the pKd entry is “below the threshold”.

As for B2, the pKd result is reported as “below the threshold”.

In another assay the target is T4, SNTG2, Q9NY99. The assay can be described thus: holdup assay. Particulars: plain residues with an end cap or a label only (N-terminal biotin on a linker: ado-ado). On the set-up: key: below the threshold = too weak to quantify, mostly under pKd 3.1 to 4.
Molecule B1 gave a pKd of 4.4.

In turn, B2 registered a pKd of 3.75.

In a further assay the target is T5, APBA1_2, Q02410. As to the kind of experiment: holdup assay. On the set-up: key: below the threshold = too weak to quantify, mostly under pKd 3.1 to 4. The settings on record: plain residues with an end cap or a label only (N-terminal biotin on a linker: ado-ado).
Turning to B1, the negative-log Kd (pKd) stood at 3.69.

As to B2, the pKd was determined as 3.91.

For another assay, the target named is MAST1, Q9Y2H9. As to the kind of experiment: holdup assay. More on the design: key: below the threshold = too weak to quantify, mostly under pKd 3.1 to 4. The settings on record: plain residues with an end cap or a label only (N-terminal biotin on a linker: ado-ado).
Chain of MAST1, Q9Y2H9 (Q9Y2H9 962-1065): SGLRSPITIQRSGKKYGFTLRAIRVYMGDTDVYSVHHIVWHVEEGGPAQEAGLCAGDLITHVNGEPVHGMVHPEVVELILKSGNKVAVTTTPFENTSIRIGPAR
Regarding B1, the pKd amounted to 4.48.

Regarding B2, the pKd came to 4.17.

The next assay concerns the target PARD3_3, Q8TEW0. The assay can be described thus: holdup assay. The settings on record: plain residues with an end cap or a label only (N-terminal biotin on a linker: ado-ado). More on the design: key: below the threshold = too weak to quantify, mostly under pKd 3.1 to 4.
With B1, the pKd result was “below the threshold”.

Consider B2, for which the pKd result was “below the threshold”.

The target in another assay is T6, PDZD7_3, Q9H5P4. The assay can be described thus: holdup assay. More on the design: key: below the threshold = too weak to quantify, mostly under pKd 3.1 to 4. Particulars: plain residues with an end cap or a label only (N-terminal biotin on a linker: ado-ado).
B1: the negative-log Kd (pKd) stood at 4.47.

B2: the pKd came out at 4.56.

The target in the next assay is DLG5_1, Q8TDM6. The assay can be described thus: holdup assay. On the set-up: key: below the threshold = too weak to quantify, mostly under pKd 3.1 to 4. The settings on record: plain residues with an end cap or a label only (N-terminal biotin on a linker: ado-ado).
Chain of DLG5_1, Q8TDM6 (Q8TDM6 617-713): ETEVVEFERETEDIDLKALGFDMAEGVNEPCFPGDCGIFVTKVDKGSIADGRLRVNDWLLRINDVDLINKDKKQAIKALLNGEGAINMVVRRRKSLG
As for B1, the pKd entry is on record as “below the threshold”.

For B2, the pKd entry is “below the threshold”.

The target in the next assay is T7, HTRA4, P83105. The assay can be described thus: holdup assay. More on the design: key: below the threshold = too weak to quantify, mostly under pKd 3.1 to 4. Particulars: plain residues with an end cap or a label only (N-terminal biotin on a linker: ado-ado).
Consider B1, for which the pKd was 3.87.

With B2, the pKd is 3.94.

In the next assay the target is IL16_1, Q14005. The assay can be described thus: holdup assay. On the set-up: key: below the threshold = too weak to quantify, mostly under pKd 3.1 to 4. Particulars: plain residues with an end cap or a label only (N-terminal biotin on a linker: ado-ado).
Chain of IL16_1, Q14005 (Q14005 210-306): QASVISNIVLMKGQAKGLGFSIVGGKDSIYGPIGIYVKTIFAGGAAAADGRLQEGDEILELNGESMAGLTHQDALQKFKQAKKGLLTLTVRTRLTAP
As for B1, the pKd is 4.97.

Take B2: the pKd result is “below the threshold”.

A further assay addresses T8, DFNB31_1, Q9P202. As to the kind of experiment: holdup assay. More on the design: key: below the threshold = too weak to quantify, mostly under pKd 3.1 to 4. Particulars: plain residues with an end cap or a label only (N-terminal biotin on a linker: ado-ado).
B1 returned a pKd of 3.75.

B2: the pKd stood at 3.95.

The next assay deals with DLG2_3, Q15700. The assay can be described thus: holdup assay. On the set-up: key: below the threshold = too weak to quantify, mostly under pKd 3.1 to 4. Particulars: plain residues with an end cap or a label only (N-terminal biotin on a linker: ado-ado).
For B1, the pKd is 4.54.

With B2, the pKd is 4.9.

Another assay addresses NHERF2_2, Q15599. As to the kind of experiment: holdup assay. More on the design: key: below the threshold = too weak to quantify, mostly under pKd 3.1 to 4. The settings on record: plain residues with an end cap or a label only (N-terminal biotin on a linker: ado-ado).
As for B1, the pKd result is reported as “below the threshold”.

With B2, the pKd result is on record as “below the threshold”.

In the next assay the target is IL16_3, Q14005. As to the kind of experiment: holdup assay. On the set-up: key: below the threshold = too weak to quantify, mostly under pKd 3.1 to 4. Particulars: plain residues with an end cap or a label only (N-terminal biotin on a linker: ado-ado).
Chain of IL16_3, Q14005 (Q14005 1107-1207): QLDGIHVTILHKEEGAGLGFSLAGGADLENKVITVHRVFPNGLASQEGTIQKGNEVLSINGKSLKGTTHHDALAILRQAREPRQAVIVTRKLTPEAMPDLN
Regarding B1, the pKd result is reported as “below the threshold”.

As for B2, the pKd entry is “below the threshold”.

The next assay has as its target T9, DLG3_3, Q92796. The assay can be described thus: holdup assay. On the set-up: key: below the threshold = too weak to quantify, mostly under pKd 3.1 to 4. The settings on record: plain residues with an end cap or a label only (N-terminal biotin on a linker: ado-ado).
Turning to B1, the negative logarithm of the Kd (pKd) came out at 4.48.

On to B2, for which the pKd turned out to be 5.08.

The target in a further assay is T10, GRIP1_4, Q9Y3R0. As to the kind of experiment: holdup assay. On the set-up: key: below the threshold = too weak to quantify, mostly under pKd 3.1 to 4. Particulars: plain residues with an end cap or a label only (N-terminal biotin on a linker: ado-ado).
Turning to B1, the pKd result is given as “below the threshold”.

For B2, the pKd entry is reported as “below the threshold”.

The target of a further assay is T11, GRIP1_2, Q9Y3R0. The assay can be described thus: holdup assay. On the set-up: key: below the threshold = too weak to quantify, mostly under pKd 3.1 to 4. The settings on record: plain residues with an end cap or a label only (N-terminal biotin on a linker: ado-ado).
Take B1: the pKd entry is “below the threshold”.

Turning to B2, the pKd stood at 3.61.

In a further assay the target is GRID2IP_2, A4D2P6. As to the kind of experiment: holdup assay. The settings on record: plain residues with an end cap or a label only (N-terminal biotin on a linker: ado-ado). On the set-up: key: below the threshold = too weak to quantify, mostly under pKd 3.1 to 4.
Chain of GRID2IP_2, A4D2P6 (A4D2P6 272-370): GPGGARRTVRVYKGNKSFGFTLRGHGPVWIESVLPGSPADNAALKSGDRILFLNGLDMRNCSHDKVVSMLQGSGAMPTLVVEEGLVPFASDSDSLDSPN
Take B1: the negative logarithm of the Kd (pKd) result is “below the threshold”.

B2 displayed a pKd of 3.94.

Another assay addresses T12, MPP7, Q5T2T1. As to the kind of experiment: holdup assay. More on the design: key: below the threshold = too weak to quantify, mostly under pKd 3.1 to 4. Particulars: plain residues with an end cap or a label only (N-terminal biotin on a linker: ado-ado).
With B1, the pKd entry was “below the threshold”.

As for B2, the pKd entry is “below the threshold”.

Another assay deals with Inadl_4, Q8NI35. The assay can be described thus: holdup assay. On the set-up: key: below the threshold = too weak to quantify, mostly under pKd 3.1 to 4. The settings on record: plain residues with an end cap or a label only (N-terminal biotin on a linker: ado-ado).
Chain of Inadl_4, Q8NI35 (Q8NI35 547-651): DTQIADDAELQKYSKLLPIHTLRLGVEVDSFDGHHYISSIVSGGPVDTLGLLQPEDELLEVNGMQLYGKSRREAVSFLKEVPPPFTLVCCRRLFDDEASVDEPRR
With B1, the pKd result is given as “below the threshold”.

Turning to B2, the pKd result is given as “below the threshold”.

In another assay the target is GRIP2_5, Q9C0E4. The assay can be described thus: holdup assay. On the set-up: key: below the threshold = too weak to quantify, mostly under pKd 3.1 to 4. The settings on record: plain residues with an end cap or a label only (N-terminal biotin on a linker: ado-ado).
Chain of GRIP2_5, Q9C0E4 (Q9C0E4 544-642): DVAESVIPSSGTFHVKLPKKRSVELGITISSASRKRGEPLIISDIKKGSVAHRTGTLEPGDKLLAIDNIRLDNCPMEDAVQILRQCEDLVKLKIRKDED
In the case of B1, the pKd result was “below the threshold”.

B2 came in with a negative-log Kd (pKd) of 3.54.

The next assay concerns the target T13, MPP6, Q9NZW5. As to the kind of experiment: holdup assay. Particulars: plain residues with an end cap or a label only (N-terminal biotin on a linker: ado-ado). More on the design: key: below the threshold = too weak to quantify, mostly under pKd 3.1 to 4.
Turning to B1, the pKd entry was “below the threshold”.

Molecule B2 registered a pKd of 3.93.

For the next assay, the target named is T14, ARHGEF11, O15085. As to the kind of experiment: holdup assay. On the set-up: key: below the threshold = too weak to quantify, mostly under pKd 3.1 to 4. The settings on record: plain residues with an end cap or a label only (N-terminal biotin on a linker: ado-ado).
As for B1, the pKd stood at 4.

B2 came in with a pKd of 4.08.
